Results on one molecule are retold here after PMC3976988 (Nature structural & molecular biology, 2013).

The test has as its target exosome core (S. cerevisiae, UniProt P46948 1-246; Q05636 1-305; Q12277 1-265; P25359 1-394; P48240 1-250; P53256 …). The experiment in a line: tandem affinity purification + ion-exchange chromatography.

A word on the stoichiometry N: it is the number of molecules, sites or subunits per partner or assembly.

B1: Rrp44 (enzyme, S. cerevisiae, UniProt Q08162 1-1001, looked up)
chain: MSVPAIAPRRKRLADGLSVTQKVFVRSRNGGATKIVREHYLRSDIPCLSRSCTKCPQIVVPDAQNELPKFILSDSPLELSAPIGKHYVVLDTNVVLQAIDLLENPNCFFDVIVPQIVLDEVRNKSYPVYTRLRTLCRDSDDHKRFIVFHNEFSEHTFVERLPNETINDRNDRAIRKTCQWYSEHLKPYDINVVLVTNDRLNREAATKEVESNIITKSLVQYIELLPNADDIRDSIPQMDSFDKDLERDTFSDFTFPEYYSTARVMGGLKNGVLYQGNIQISEYNFLEGSVSLPRFSKPVLIVGQKNLNRAFNGDQVIVELLPQSEWKAPSSIVLDSEHFDVNDNPDIEAGDDDDNNESSSNTTVISDKQRRLLAKDAMIAQRSKKIQPTAKVVYIQRRSWRQYVGQLAPSSVDPQSSSTQNVFVILMDKCLPKVRIRTRRAAELLDKRIVISIDSWPTTHKYPLGHFVRDLGTIESAQAETEALLLEHDVEYRPFSKKVLECLPAEGHDWKAPTKLDDPEAVSKDPLLTKRKDLRDKLICSIDPPGCVDIDDALHAKKLPNGNWEVGVHIADVTHFVKPGTALDAEGAARGTSVYLVDKRIDMLPMLLGTDLCSLKPYVDRFAFSVIWELDDSANIVNVNFMKSVIRSREAFSYEQAQLRIDDKTQNDELTMGMRALLKLSVKLKQKRLEAGALNLASPEVKVHMDSETSDPNEVEIKKLLATNSLVEEFMLLANISVARKIYDAFPQTAMLRRHAAPPSTNFEILNEMLNTRKNMSISLESSKALADSLDRCVDPEDPYFNTLVRIMSTRCMMAAQYFYSGAYSYPDFRHYGLAVDIYTHFTSPIRRYCDVVAHRQLAGAIGYEPLSLTHRDKNKMDMICRNINRKHRNAQFAGRASIEYYVGQVMRNNESTETGYVIKVFNNGIVVLVPKFGVEGLIRLDNLTEDPNSAAFDEVEYKLTFVPTNSDKPRDVYVFDKVEVQVRSVMDPITSKRKAELLLK
For the molecule B1, the “stoichiometry N” value came out at 1 molar ratio.
